Residue numbers refer to the chain shown, from its start. Where two headings read alike, the source gives them in different places.
Columns and labels:
[1] = biological target: T1, purified recombinant IFNAR-1 extracellular fragment (human, UniProt P17181 28-436); experiment: Biacore, response on IFNAR-1 (flow cell 2) divided by response on anti-human IgG Fc (flow cell 4)
T1 construct: extracellular domain; also called soluble IFNAR-1; soluble IFNAR
T1 sequence (looked up): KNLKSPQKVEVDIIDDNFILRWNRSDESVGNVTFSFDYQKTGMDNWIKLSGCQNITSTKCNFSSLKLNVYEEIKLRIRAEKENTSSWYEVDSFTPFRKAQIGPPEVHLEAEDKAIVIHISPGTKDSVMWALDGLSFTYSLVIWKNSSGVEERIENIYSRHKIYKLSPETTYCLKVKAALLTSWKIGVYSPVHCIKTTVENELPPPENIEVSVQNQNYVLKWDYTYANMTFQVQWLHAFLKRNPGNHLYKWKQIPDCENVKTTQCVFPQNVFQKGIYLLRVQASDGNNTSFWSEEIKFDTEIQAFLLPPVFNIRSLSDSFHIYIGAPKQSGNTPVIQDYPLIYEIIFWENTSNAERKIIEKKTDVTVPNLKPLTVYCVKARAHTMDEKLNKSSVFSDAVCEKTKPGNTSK
Source text: A series of antibodies were constructed with reduced numbers of potential T-cell epitopes. These included heavy chain variants M3-A and M3-B in which residues were changed in CDR regions and DI M3 in which framework residues were altered. De-immunized light chains were also constructed termed K1-C, K1-D, K1-E and DI K1. The antibodies were expressed and purified before analysis by Biacore. A Biacore chip was used with IFNAR-1 coated on Flow cell 2 at 690 RU and anti-human IgG Fc on flow cell 4 at 5000 RU. Binding of the antibody to IFNAR-1 relative to anti-human IgG Fc was determined by the ratio of response at flow cell 2 divided by flow cell 4 (Fc2/Fc4).

[2] = biological target: T1, purified recombinant IFNAR-1 …; experiment: Biacore, maximal association on IFNAR-1 relative to M3K1
Source text: (§1) Pools 4 and 11 were selected for further study and the individual antibodies in each pool were produced and expressed separately. The sequences of these individual antibodies were as shown in SEQ ID NO:12 of FIG. 1F and SEQ ID NO: 13 of FIG. 1G. The data is presented as maximal association relative to M3K1. […]

[3] = biological target: T1, purified recombinant IFNAR-1 …; experiment: as above; remark: listed apart in the source
Source text: as §1

B1: M3 heavy chain with K1-CD light chain (antibody, human IgG4, V domains shown)
VH: EVQLLESGGGLVQPGGSLRLSCAFSGFTLSTSGMGIGWVRQAPGKGLEWVAHIWWDDDKYYNPSLKSRFTISRDTSKNTVYLQMNSLRAEDTAVYYCARNYYPYDAWFDYWGQGTLVTVS
VL: DIQMTQSPSSLSASVGDRVTITCSASTSINSNHLNWYQQKPGKAPKLLIYRTSILASGVPSRFSGSGSGTSFTLTISSLQPEDFATYYCQQGSNIPFTFGQGTKVEIKR
notes: also called M3 K1-C/D
% activity relative to H3K1 [1]: 57%
Fc2/Fc4 [1]: 0.17

B2: M3-4 (X = L) heavy chain with K1 light chain (antibody, V domains shown)
VH: B1 VH with P103L
VL: DIQMTQSPSSLSASVGDRVTITCSASSSINSNHLHWYQQKPGKAPKLLIYRTSILASGVPSRFSGSGSGTSFTLTISSLQPEDFATYYCQQGSNIPFTFGQGTKVEIK
notes: the position is counted within CDR3, not on the entry; also called M3-4 L
% activity relative to M3K1 [2]: 126%

B3: M3-11 (X = G) heavy chain with K1 light chain (antibody, V domains shown)
VH: B1 VH with Y110G
VL: B2 VL
notes: Position counted within VH CDR3; also called M3-11 G
% activity relative to M3K1 [3]: 63%

B4: M3-4 (X = H) heavy chain with K1 light chain (antibody, V domains shown)
VH: B1 VH with P103H
VL: B2 VL
notes: Position counted within VH CDR3; also called M3-4 H
% activity relative to M3K1 [2]: 79%

B5: M3-11 (X = F) heavy chain with K1 light chain (antibody, V domains shown)
VH: B1 VH with Y110F
VL: B2 VL
notes: Position counted within VH CDR3; also called M3-11 F
% activity relative to M3K1 [3]: 93%

B6: M3-11 (X = I) heavy chain with K1 light chain (antibody, V domains shown)
VH: B1 VH with Y110I
VL: B2 VL
notes: Position counted within VH CDR3; also called M3-11 I
% activity relative to M3K1 [3]: 81%

B7: M3-AB heavy chain with K1 light chain (antibody, human IgG4, V domains shown)
VH: B1 VH with M34A, S67A
VL: B1 VL with T27S, N35H
notes: also called M3-A/B K1
% activity relative to H3K1 [1]: 43%
Fc2/Fc4 [1]: 0.13

B8: M3-11 (X = A) heavy chain with K1 light chain (antibody, V domains shown)
VH: B1 VH with Y110A
VL: B2 VL
notes: Position counted within VH CDR3; also called M3-11 A
% activity relative to M3K1 [3]: 93%

B9: M3 heavy chain with K1-E light chain (antibody, human IgG4, V domains shown)
VH: B1 VH
VL: B1 VL with T27S, N35H, G92T
notes: also called M3 K1-E
Fc2/Fc4 [1]: -0.05

B10: M3-11 (X = E) heavy chain with K1 light chain (antibody, V domains shown)
VH: B1 VH with Y110E
VL: B2 VL
notes: Position counted within VH CDR3; also called M3-11 E
% activity relative to M3K1 [3]: 105%

B11: M3 heavy chain with K1-D light chain (antibody, human IgG4, V domains shown)
VH: B1 VH
VL: B1 VL with T27S
notes: also called M3 K1-D
% activity relative to H3K1 [1]: 30%
Fc2/Fc4 [1]: 0.09

B12: M3-4 (X = I) heavy chain with K1 light chain (antibody, V domains shown)
VH: B1 VH with P103I
VL: B2 VL
notes: Position counted within VH CDR3; also called M3-4 I
% activity relative to M3K1 [2]: 106%

B13: M3-A heavy chain with K1 light chain (antibody, human IgG4, V domains shown)
VH: B1 VH with M34A
VL: B1 VL with T27S, N35H
notes: also called M3-A K1
% activity relative to H3K1 [1]: 17%
Fc2/Fc4 [1]: 0.05

B14: M3-4 (X = V) heavy chain with K1 light chain (antibody, V domains shown)
VH: B1 VH with P103V
VL: B2 VL
notes: Position counted within VH CDR3; also called M3-4 V
% activity relative to M3K1 [2]: 122%

B15: M3-4 (X = K) heavy chain with K1 light chain (antibody, V domains shown)
VH: B1 VH with P103K
VL: B2 VL
notes: Position counted within VH CDR3; also called M3-4 K
% activity relative to M3K1 [2]: 86%

B16: M3-AB heavy chain with K1-CD light chain (antibody, human IgG4, V domains shown)
VH: B1 VH with M34A, S67A
VL: B1 VL
notes: also called M3-A/B K1-C/D
% activity relative to H3K1 [1]: 23%
Fc2/Fc4 [1]: 0.07

B17: M3-11 (X = C) heavy chain with K1 light chain (antibody, V domains shown)
VH: B1 VH with Y110C
VL: B2 VL
notes: Position counted within VH CDR3; also called M3-11 C
% activity relative to M3K1 [3]: 64%

B18: M3 heavy chain with K1-CDE light chain (antibody, human IgG4, V domains shown)
VH: B1 VH
VL: B1 VL with G92T
notes: also called M3 K1-C/D/E
Fc2/Fc4 [1]: -0.1

B19: M3-11 (X = D) heavy chain with K1 light chain (antibody, V domains shown)
VH: B1 VH with Y110D
VL: B2 VL
notes: Position counted within VH CDR3; also called M3-11 D
% activity relative to M3K1 [3]: 67%

B20: M3-4 (X = C) heavy chain with K1 light chain (antibody, V domains shown)
VH: B1 VH with P103C
VL: B2 VL
notes: Position counted within VH CDR3; also called M3-4 C
% activity relative to M3K1 [2]: 123%

B21: M3-4 (X = W) heavy chain with K1 light chain (antibody, V domains shown)
VH: B1 VH with P103W
VL: B2 VL
notes: Position counted within VH CDR3; also called M3-4 W
% activity relative to M3K1 [2]: 93%

B22: M3 heavy chain with K1-DE light chain (antibody, human IgG4, V domains shown)
VH: B1 VH
VL: B1 VL with T27S, G92T
notes: also called M3 K1-D/E
Fc2/Fc4 [1]: -0.1

B23: M3-4 (X = A) heavy chain with K1 light chain (antibody, V domains shown)
VH: B1 VH with P103A
VL: B2 VL
notes: Position counted within VH CDR3; also called M3-4 A
% activity relative to M3K1 [2]: 107%

B24: M3-11 (X = H) heavy chain with K1 light chain (antibody, V domains shown)
VH: B1 VH with Y110H
VL: B2 VL
notes: Position counted within VH CDR3; also called M3-11 H
% activity relative to M3K1 [3]: 104%

B25: M3-4 (X = D) heavy chain with K1 light chain (antibody, V domains shown)
VH: B1 VH with P103D
VL: B2 VL
notes: Position counted within VH CDR3; also called M3-4 D
% activity relative to M3K1 [2]: 100%

B26: M3-4 (X = M) heavy chain with K1 light chain (antibody, V domains shown)
VH: B1 VH with P103M
VL: B2 VL
notes: Position counted within VH CDR3; also called M3-4 M
% activity relative to M3K1 [2]: 101%

B27: M3-4 (X = E) heavy chain with K1 light chain (antibody, V domains shown)
VH: B1 VH with P103E
VL: B2 VL
notes: Position counted within VH CDR3; also called M3-4 E
% activity relative to M3K1 [2]: 128%

B28: M3-4 (X = S) heavy chain with K1 light chain (antibody, V domains shown)
VH: B1 VH with P103S
VL: B2 VL
notes: Position counted within VH CDR3; also called M3-4 S
% activity relative to M3K1 [2]: 110%

B29: M3-4 (X = T) heavy chain with K1 light chain (antibody, V domains shown)
VH: B1 VH with P103T
VL: B2 VL
notes: Position counted within VH CDR3; also called M3-4 T
% activity relative to M3K1 [2]: 103%

B30: M3-4 (X = G) heavy chain with K1 light chain (antibody, V domains shown)
VH: B1 VH with P103G
VL: B2 VL
notes: Position counted within VH CDR3; also called M3-4 G
% activity relative to M3K1 [2]: 114%

B31: M3-4 (X = R) heavy chain with K1 light chain (antibody, V domains shown)
VH: B1 VH with P103R
VL: B2 VL
notes: Position counted within VH CDR3; also called M3-4 R
% activity relative to M3K1 [2]: 106%

B32: M3-4 (X = N) heavy chain with K1 light chain (antibody, V domains shown)
VH: B1 VH with P103N
VL: B2 VL
notes: Position counted within VH CDR3; also called M3-4 N
% activity relative to M3K1 [2]: 49%
